Laboratory results reported in patent publication US20250263489A1 (TEIJIN PHARMA, published 2025).
Where two headings read alike, the source gives them in different places.

How the values were obtained:
Assay in all cases: cell-based or functional assay
[1] = biological target: T1, IGF-1 receptor on the cells of the PathHunter IGF1R Functional Assay (DiscoverX) (UniProt P08069 31-1367)
[2] = biological target: T1, IGF-1 receptor on the cells of the …; remark: listed apart in the source
[3] = biological target: T1, IGF-1 receptor on the cells of the …; remark: listed apart in the source
[4] = biological target: T1, IGF-1 receptor on the cells of the …; remark: listed apart in the source

T1 sequence (P08069 31-1367): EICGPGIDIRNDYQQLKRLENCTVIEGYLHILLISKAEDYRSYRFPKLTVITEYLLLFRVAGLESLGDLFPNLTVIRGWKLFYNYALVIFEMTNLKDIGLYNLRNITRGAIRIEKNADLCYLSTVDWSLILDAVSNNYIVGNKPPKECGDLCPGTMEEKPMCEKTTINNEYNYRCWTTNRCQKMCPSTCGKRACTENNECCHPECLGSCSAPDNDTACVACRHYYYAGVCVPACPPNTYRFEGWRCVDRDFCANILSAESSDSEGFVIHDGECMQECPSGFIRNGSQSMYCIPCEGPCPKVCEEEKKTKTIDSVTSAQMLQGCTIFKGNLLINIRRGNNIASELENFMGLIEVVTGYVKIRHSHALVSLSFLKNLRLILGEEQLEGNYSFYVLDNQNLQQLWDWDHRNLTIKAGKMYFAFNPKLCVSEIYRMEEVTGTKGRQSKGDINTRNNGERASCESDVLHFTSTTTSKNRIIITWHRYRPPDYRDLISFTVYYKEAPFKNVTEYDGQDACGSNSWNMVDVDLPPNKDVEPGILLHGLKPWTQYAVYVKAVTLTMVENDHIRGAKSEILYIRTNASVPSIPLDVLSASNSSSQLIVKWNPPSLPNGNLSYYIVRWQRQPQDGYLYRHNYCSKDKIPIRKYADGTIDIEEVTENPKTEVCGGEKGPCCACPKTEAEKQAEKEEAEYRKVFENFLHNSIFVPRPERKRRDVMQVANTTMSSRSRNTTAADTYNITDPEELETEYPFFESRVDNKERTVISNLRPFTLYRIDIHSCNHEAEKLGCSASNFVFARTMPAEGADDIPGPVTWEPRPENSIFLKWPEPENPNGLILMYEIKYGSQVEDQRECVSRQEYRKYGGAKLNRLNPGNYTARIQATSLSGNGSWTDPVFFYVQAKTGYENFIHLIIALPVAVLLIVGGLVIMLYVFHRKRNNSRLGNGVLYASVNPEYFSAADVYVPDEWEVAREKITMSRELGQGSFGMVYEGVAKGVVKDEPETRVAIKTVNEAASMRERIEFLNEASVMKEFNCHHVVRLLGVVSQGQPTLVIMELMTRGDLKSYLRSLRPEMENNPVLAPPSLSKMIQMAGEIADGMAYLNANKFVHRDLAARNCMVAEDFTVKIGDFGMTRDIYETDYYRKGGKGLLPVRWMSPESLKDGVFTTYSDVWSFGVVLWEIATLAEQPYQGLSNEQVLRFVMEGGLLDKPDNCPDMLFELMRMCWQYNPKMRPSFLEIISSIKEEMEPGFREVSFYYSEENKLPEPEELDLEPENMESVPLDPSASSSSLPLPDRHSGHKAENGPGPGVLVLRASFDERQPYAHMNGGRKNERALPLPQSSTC

B1: FW1_var9 antibody (antibody, V domains shown)
VH: QVQLVQSGAEVKKPGASVKVSCKASGYTFTSYWMHWVRQAPGQGLEWMGETNPSNSVTNYAQKFQGRVTLTVDTSTSTAYMELSSLRSEDTAVYYCTIGRGRGFAYWGQGTLVTVSS
VL: DIQMTQSPSSVSASVGDRVTITCRASQNINFWLSWYQQKPGKAPKLLIYKASNLHTGVPSRFSGSGSGTDFTLTISSLQPEDFATYYCLQGQSYPYTFGGGTKLEIK
Activation intensity (RLU), PathHunter [1]: 1450 RLU | Fluorescence intensity (0.1 nM) (RLU), PathHunter [1]: 591 RLU | Fluorescence intensity (12.5 nM) (RLU), PathHunter [1]: 2040 RLU | Ratio of activation intensity, PathHunter [1]: 0.67 relative to IGF11-16

B2: FW1_var10_NEKS (antibody, human IgG4, V domains shown)
VH: QVQLVQSGAEVKKPGASVKVSCKASGYTFTSYWMHWVRQAPGQGLEWMGETNPSNSVTNYNEKFKSRVTLTVDTSTSTAYMELSSLRSEDTATYYCTIGRGRGFAYWGQGTLVTVSS
VL: DIQMTQSPSSVSASVGDRVTITCRASQNINFWLSWYQQKPGKAPKLLIYKASNLHTGVPSRFSGSGSGTDFTLTISSLQPEDFATYYCLQGQSYPYTFGGGTKLEIK
Activation intensity (RLU), PathHunter [2]: 1960 RLU | Fluorescence intensity (0.1 nM) (RLU), PathHunter [2]: 223 RLU | Fluorescence intensity (12.5 nM) (RLU), PathHunter [2]: 2190 RLU | Ratio of activation intensity, PathHunter [2]: 0.55 relative to IGF11-16

B3: FW2_var2 antibody (antibody, V domains shown)
VH: QVQLVQSGAEVKKPGSSVKVSCKASGYTFTSYWMHWVRQAPGQGLEWMGETNPSNSVTNYAQKFQGRVTLTVDKSTSTAYMELSSLRSEDTAVYYCTIGRGRGFAYWGQGTLVTVSS
VL: DIQMTQSPSSLSASVGDRVTITCRASQNINFWLSWYQQKPGKIPKLLIYKASNLHTGVPSRFSGSGSGTDFTLTISSLQPEDVATYYCLQGQSYPYTFGGGTKLEIK
Activation intensity (RLU), PathHunter [1]: 1320 RLU | Fluorescence intensity (0.1 nM) (RLU), PathHunter [1]: 572 RLU | Fluorescence intensity (12.5 nM) (RLU), PathHunter [1]: 1890 RLU | Ratio of activation intensity, PathHunter [1]: 0.61 relative to IGF11-16

B4: IGF11-16 with alanine substitution of H at position 35 (CDR-H1) (antibody, mouse IgG1, V domains shown)
VH: QIQLQQPGAELVKPGASVKLSCKAPGYTFTSYWMAWVKQRPGQGLEWIGETNPSNSVTNYNEKFKSKATLTVDKSSSTAYMQLSSLTSEDSAVYYCTIGRGRGFAYWGQGTLVTVSA
VL: DIQMNQSPSSLSASLGDTITITCRASQNINFWLSWCQQKPGNIPKLLIYKASNLHTGVPSRFSGSGSGTDFTLTISSLQPEDIATYYCLQGQSYPYTFGGGTKLEIK
Signal activation EC50 vs IGF11-16, PathHunter [3]: 2.2 ratio vs IGF11-16 | Signal activation Emax vs IGF11-16, PathHunter [3]: 1 ratio vs IGF11-16

B5: FW1_var14 antibody (antibody, V domains shown)
VH: QVQLVQSGAEVKKPGASVKVSCKASGYTFTSYWMHWVRQAPGQGLEWMGETNPSNSVTNYAQKFQGRVTLTVDTSTSTAYMELSSLRSEDTATYYCTIGRGRGFAYWGQGTLVTVSS
VL: DIQMTQSPSSVSASVGDRVTITCRASQNINFWLSWYQQKPGKAPRLLIYKASNLHTGVPSRFSGSGSGTDFTLTISSLQPEDFATYYCLQGQSYPYTFGGGTKLEIK
Activation intensity (RLU), PathHunter [1]: 1340 RLU | Fluorescence intensity (0.1 nM) (RLU), PathHunter [1]: 558 RLU | Fluorescence intensity (12.5 nM) (RLU), PathHunter [1]: 1900 RLU | Ratio of activation intensity, PathHunter [1]: 0.62 relative to IGF11-16

B6: IGF11-16 with alanine substitution of W at position 33 (CDR-H1) (antibody, mouse IgG1, V domains shown)
VH: QIQLQQPGAELVKPGASVKLSCKAPGYTFTSYAMHWVKQRPGQGLEWIGETNPSNSVTNYNEKFKSKATLTVDKSSSTAYMQLSSLTSEDSAVYYCTIGRGRGFAYWGQGTLVTVSA
VL: DIQMNQSPSSLSASLGDTITITCRASQNINFWLSWCQQKPGNIPKLLIYKASNLHTGVPSRFSGSGSGTDFTLTISSLQPEDIATYYCLQGQSYPYTFGGGTKLEIK
Signal activation EC50 vs IGF11-16, PathHunter [3]: 0.5 ratio vs IGF11-16 | Signal activation Emax vs IGF11-16, PathHunter [3]: 0 ratio vs IGF11-16

B7: IGF11-16 with alanine substitution of S at position 56 (CDR-H2) (antibody, mouse IgG1, V domains shown)
VH: QIQLQQPGAELVKPGASVKLSCKAPGYTFTSYWMHWVKQRPGQGLEWIGETNPSNAVTNYNEKFKSKATLTVDKSSSTAYMQLSSLTSEDSAVYYCTIGRGRGFAYWGQGTLVTVSA
VL: DIQMNQSPSSLSASLGDTITITCRASQNINFWLSWCQQKPGNIPKLLIYKASNLHTGVPSRFSGSGSGTDFTLTISSLQPEDIATYYCLQGQSYPYTFGGGTKLEIK
Signal activation EC50 vs IGF11-16, PathHunter [3]: 2.9 ratio vs IGF11-16 | Signal activation Emax vs IGF11-16, PathHunter [3]: 1.1 ratio vs IGF11-16

B8: FW1_var10 antibody (antibody, V domains shown)
VH: QVQLVQSGAEVKKPGASVKVSCKASGYTFTSYWMHWVRQAPGQGLEWMGETNPSNSVTNYAQKFQGRVTLTVDTSTSTAYMELSSLRSEDTATYYCTIGRGRGFAYWGQGTLVTVSS
VL: DIQMTQSPSSVSASVGDRVTITCRASQNINFWLSWYQQKPGKAPKLLIYKASNLHTGVPSRFSGSGSGTDFTLTISSLQPEDFATYYCLQGQSYPYTFGGGTKLEIK
Activation intensity (RLU), PathHunter [1]: 1350 RLU | Fluorescence intensity (0.1 nM) (RLU), PathHunter [1]: 516 RLU | Fluorescence intensity (12.5 nM) (RLU), PathHunter [1]: 1860 RLU | Ratio of activation intensity, PathHunter [1]: 0.62 relative to IGF11-16

B9: IGF11-16 with alanine substitution of S at position 54 (CDR-H2) (antibody, mouse IgG1, V domains shown)
VH: QIQLQQPGAELVKPGASVKLSCKAPGYTFTSYWMHWVKQRPGQGLEWIGETNPANSVTNYNEKFKSKATLTVDKSSSTAYMQLSSLTSEDSAVYYCTIGRGRGFAYWGQGTLVTVSA
VL: DIQMNQSPSSLSASLGDTITITCRASQNINFWLSWCQQKPGNIPKLLIYKASNLHTGVPSRFSGSGSGTDFTLTISSLQPEDIATYYCLQGQSYPYTFGGGTKLEIK
Signal activation EC50 vs IGF11-16, PathHunter [3]: 2.5 ratio vs IGF11-16 | Signal activation Emax vs IGF11-16, PathHunter [3]: 1 ratio vs IGF11-16

B10: IGF11-16 with alanine substitution of N at position 55 (CDR-H2) (antibody, mouse IgG1, V domains shown)
VH: QIQLQQPGAELVKPGASVKLSCKAPGYTFTSYWMHWVKQRPGQGLEWIGETNPSASVTNYNEKFKSKATLTVDKSSSTAYMQLSSLTSEDSAVYYCTIGRGRGFAYWGQGTLVTVSA
VL: DIQMNQSPSSLSASLGDTITITCRASQNINFWLSWCQQKPGNIPKLLIYKASNLHTGVPSRFSGSGSGTDFTLTISSLQPEDIATYYCLQGQSYPYTFGGGTKLEIK
Signal activation EC50 vs IGF11-16, PathHunter [3]: 3 ratio vs IGF11-16 | Signal activation Emax vs IGF11-16, PathHunter [3]: 1 ratio vs IGF11-16

B11: FW1_var14_NEKS (antibody, human IgG4, V domains shown)
VH: QVQLVQSGAEVKKPGASVKVSCKASGYTFTSYWMHWVRQAPGQGLEWMGETNPSNSVTNYNEKFKSRVTLTVDTSTSTAYMELSSLRSEDTATYYCTIGRGRGFAYWGQGTLVTVSS
VL: DIQMTQSPSSVSASVGDRVTITCRASQNINFWLSWYQQKPGKAPRLLIYKASNLHTGVPSRFSGSGSGTDFTLTISSLQPEDFATYYCLQGQSYPYTFGGGTKLEIK
Activation intensity (RLU), PathHunter [2]: 1740 RLU | Fluorescence intensity (0.1 nM) (RLU), PathHunter [2]: 221 RLU | Fluorescence intensity (12.5 nM) (RLU), PathHunter [2]: 1960 RLU | Ratio of activation intensity, PathHunter [2]: 0.49 relative to IGF11-16

B12: IGF11-16 with alanine substitution of N at position 52 (CDR-H2) (antibody, mouse IgG1, V domains shown)
VH: QIQLQQPGAELVKPGASVKLSCKAPGYTFTSYWMHWVKQRPGQGLEWIGETAPSNSVTNYNEKFKSKATLTVDKSSSTAYMQLSSLTSEDSAVYYCTIGRGRGFAYWGQGTLVTVSA
VL: DIQMNQSPSSLSASLGDTITITCRASQNINFWLSWCQQKPGNIPKLLIYKASNLHTGVPSRFSGSGSGTDFTLTISSLQPEDIATYYCLQGQSYPYTFGGGTKLEIK
Signal activation EC50 vs IGF11-16, PathHunter [3]: 2.7 ratio vs IGF11-16 | Signal activation Emax vs IGF11-16, PathHunter [3]: 0 ratio vs IGF11-16

B13: FW1_var9-hH2a (antibody, V domains shown)
VH: QVQLQQSGAEVKKPGASVKVSCKASGYTFTSYWMHWVRQAPGQGLEWMGETNPSNSVTNYAQKFQGRVTLTVDTSTSTAYMELSSLRSEDTAVYYCTIGRGRGFAYWGQGTLVTVSS
VL: DIQMTQSPSSVSASVGDRVTITCRASQNINFWLSWYQQKPGKAPKLLIYKASNLHTGVPSRFSGSGSGTDFTLTISSLQPEDFATYYCLQGQSYPYTFGGGTKLEIK
Signal intensity ratio (compared to IGF11-16) at 16.7 nM, PathHunter [4]: 0.54 ratio to IGF11-16

B14: IGF11-16 with alanine substitution of R at position 102 (CDR-H3) (antibody, mouse IgG1, V domains shown)
VH: QIQLQQPGAELVKPGASVKLSCKAPGYTFTSYWMHWVKQRPGQGLEWIGETNPSNSVTNYNEKFKSKATLTVDKSSSTAYMQLSSLTSEDSAVYYCTIGRGAGFAYWGQGTLVTVSA
VL: DIQMNQSPSSLSASLGDTITITCRASQNINFWLSWCQQKPGNIPKLLIYKASNLHTGVPSRFSGSGSGTDFTLTISSLQPEDIATYYCLQGQSYPYTFGGGTKLEIK
Signal activation EC50 vs IGF11-16, PathHunter [3]: 54.4 ratio vs IGF11-16 | Signal activation Emax vs IGF11-16, PathHunter [3]: 4.8 ratio vs IGF11-16

B15: IGF11-16 with alanine substitution of N at position 59 (CDR-H2) (antibody, mouse IgG1, V domains shown)
VH: QIQLQQPGAELVKPGASVKLSCKAPGYTFTSYWMHWVKQRPGQGLEWIGETNPSNSVTAYNEKFKSKATLTVDKSSSTAYMQLSSLTSEDSAVYYCTIGRGRGFAYWGQGTLVTVSA
VL: DIQMNQSPSSLSASLGDTITITCRASQNINFWLSWCQQKPGNIPKLLIYKASNLHTGVPSRFSGSGSGTDFTLTISSLQPEDIATYYCLQGQSYPYTFGGGTKLEIK
Signal activation EC50 vs IGF11-16, PathHunter [3]: 2.3 ratio vs IGF11-16 | Signal activation Emax vs IGF11-16, PathHunter [3]: 0.9 ratio vs IGF11-16

B16: FW1_var9-hH1a (antibody, V domains shown)
VH: QIQLVQSGAEVKKPGASVKVSCKASGYTFTSYWMHWVRQAPGQGLEWMGETNPSNSVTNYAQKFQGRVTLTVDTSTSTAYMELSSLRSEDTAVYYCTIGRGRGFAYWGQGTLVTVSS
VL: DIQMTQSPSSVSASVGDRVTITCRASQNINFWLSWYQQKPGKAPKLLIYKASNLHTGVPSRFSGSGSGTDFTLTISSLQPEDFATYYCLQGQSYPYTFGGGTKLEIK
Signal intensity ratio (compared to IGF11-16) at 16.7 nM, PathHunter [4]: 0.7 ratio to IGF11-16

B17: IGF11-16 with alanine substitution of F at position 64 (CDR-H2) (antibody, mouse IgG1, V domains shown)
VH: QIQLQQPGAELVKPGASVKLSCKAPGYTFTSYWMHWVKQRPGQGLEWIGETNPSNSVTNYNEKAKSKATLTVDKSSSTAYMQLSSLTSEDSAVYYCTIGRGRGFAYWGQGTLVTVSA
VL: DIQMNQSPSSLSASLGDTITITCRASQNINFWLSWCQQKPGNIPKLLIYKASNLHTGVPSRFSGSGSGTDFTLTISSLQPEDIATYYCLQGQSYPYTFGGGTKLEIK
Signal activation EC50 vs IGF11-16, PathHunter [3]: 2.4 ratio vs IGF11-16 | Signal activation Emax vs IGF11-16, PathHunter [3]: 0.9 ratio vs IGF11-16
